Test results reported in the supplement of paper PMC11865577.

Experiments:
Assay in all cases: pull-down binding Z-score (relative to library population); higher = stronger binding
[1] = tested on: G-clamp-N3 (biotin conjugate); conditions: RNA library: Library-1 (pre-miRNA loops + repeats)
In short: (§1)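 Streptavidin beads with 100 pmol of biotin-conjugated small molecule were incubated for 60 min at 25 °C with 1 μg of heat-folded Cy5- or Cy3-end-labelled RNA library in phosphate/NaCl/KCl buffer. Bound RNA was eluted in hot SDS after three washes and hybridised to a DNA barcode microarray at 55.5 °C for 20 h. Each binding score is a library-referenced Z-score, computed after beads-only subtraction and a trimmed mean of barcoded replicate probes.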

[2] = tested on: TO-3-N3 (biotin conjugate); conditions: RNA library: Library-2
In short: as §1

[3] = tested on: TO-3-N3-2 (biotin conjugate); conditions: RNA library: Library-2
In short: as §1

TO-N3 (biotin conjugate) = conditions: RNA library: Library-2
In short: as §1

[4] = tested on: TO-N3-2 (biotin conjugate); conditions: RNA library: Library-2
In short: as §1

Sequence	pull-down binding Z-score [1]	pull-down binding Z-score [2]	pull-down binding Z-score [3]	pull-down binding Z-score (TO-N3 (biotin conjugate))	pull-down binding Z-score [4]
AGCACUUUCUGUUUUGUGAAAGAAAAGAAAGUGCU [hsa-mir-516b-1]	-0.472	-0.893	-0.64	-1.32	-1.2
ACCUAACACACUGCCUUUUAUGUGGUAGGU [hsa-mir-5094]	-1.19	-0.678	-0.66	-1.02	-1.14
CCUGCCACGUCAAAGGAGGCAGA [hsa-mir-3154]	1.11	-0.302	-0.38	-0.164	0.137
GCAGCCAGUCCUGUCUCACCGC [hsa-mir-6812]	-0.666	-0.19	-0.105	0.14	1.08
UUGUAAUAGUGUAGAAUGUUGGUUAAC [hsa-mir-591]	0.797	-0.133	0.537	0.358	0.44
UGUUAAGGCAUGUUCAGGAACA [hsa-mir-1265]	2.1	-0.0763	0.401	0.28	0.652
CUGUAUGUCCUAACAGUGCUUGUAG [hsa-mir-4794]	-0.4	-0.28	-0.0698	0.0771	0.46
GAGUGGUCGGGUCGACUGAACC [hsa-mir-4726]	-0.197	0.829	0.454	1.23	1.34
GGGGGCAGGCUGCCACCUCCUG [hsa-mir-8089]	-0.161	1.5	0.599	1.89	1.36
UAAGAGUAAUAGCUCUCUAGGUUAUUAUGAAUA [hsa-mir-5692c-1]	-0.762	-0.283	0.109	-0.449	-0.712
GUGUAGGGGUGGCUACAC [hsa-mir-4717]	0.957	0.385	0.281	0.346	0.235
GAACUAACUAACCAGAACUAUUUUGUUC [hsa-mir-4652]	-1.48	0.249	0.0681	-0.0697	-0.742
UUUUAGAA [hsa-mir-4443]	-1.3	-0.568	-0.535	-0.913	-1.35
UUGGUCCGUAUGUGUGGUGCCACCGG [hsa-mir-1908]	-0.147	-0.202	-0.0706	0.148	0.948
CAUGUAUGUGUAUAUACAUAUAUAUG [hsa-mir-297]	1.71	0.635	-0.125	0.218	-0.648
UUCCGGUGAUUAUCACAGCCAUGCCUUUACCUCCAGAA [hsa-mir-4493]	-0.101	-0.84	-0.0994	-0.594	-0.00535
AGAAGAACU [hsa-mir-378j]	-0.205	-0.279	-0.0957	-0.272	-0.277
GCAAGGCUGUAGUGUGCACAGCCUUGA [hsa-mir-4452]	-0.383	0.945	0.127	0.936	0.583
GGCAUCCCCAUUGCU [hsa-mir-4304]	-0.987	0.527	-0.113	0.343	0.191

Sequence	pull-down binding Z-score [1]	pull-down binding Z-score [2]	pull-down binding Z-score [3]	pull-down binding Z-score (TO-N3 (biotin conjugate))	pull-down binding Z-score [4]
CUUCCUGAGCACGCUCAUGAUGAGCAAACUGAGCCUCUAAG [hsa-mir-3653]	-0.859	0.463	0.277	0.596	0.429
CUCGGGAGGCUGAG [hsa-mir-4419a]	1.91	-0.569	-0.459	-0.51	0.147
UUUAAGACACCCUGUACCUUAAA [hsa-mir-3121]	-1.57	-0.44	-0.305	-0.415	-0.346
UCUGCUUUAUUUCAUCAAAGCAGA [hsa-mir-4773-1]	-0.484	-0.916	-0.676	-1.36	-1.41
CACAGUUCUGG [hsa-mir-761]	0.647	0.292	-0.473	0.102	0.18
AAUCCCAGCACUUUGGGAG [hsa-mir-3929]	0.566	0.0452	-0.0338	0.0138	0.171
UGUUUGUGUCUAAACUAUCAAACG [hsa-mir-122]	-0.679	-0.183	-0.158	-0.332	-0.625
CACUUUCUGCUCUCUGGUGAAAGUG [hsa-mir-371a]	0.951	0.0211	-0.0736	-0.0106	-0.309
GUUGGAUGGUCUAAUUGUGAAGCUCCUAAC [hsa-mir-141]	-0.549	-0.103	-0.259	-0.138	-0.0552
UGGUCAGAUAUCCCAU [hsa-mir-8060]	-1.4	-0.323	-0.195	-0.262	-0.0919
GGAAAGGGGAUGCAGAGCCCUGCC [hsa-mir-4647]	1.97	1.28	0.526	1.44	1.52
GCAGGUAGCUUUUUGAGAUCUACUGC [hsa-mir-106a]	0.281	-0.704	-0.00277	-0.711	-0.248
ACCCGGGUGGUGGAGGUUGCAGUGAGCCAAGAUUGCGCCACUGCACUCCAGCCUGGGC [hsa-mir-1273a]	-0.139	1.06	0.442	1.94	1.66
CCCUGCACUCAGUUUGCACAGGG [hsa-mir-4511]	0.204	-0.159	-0.184	-0.122	0.0492
UGCCUCUCGGGGU [hsa-mir-6073]	-0.532	0.000863	0.15	0.118	0.214
GCUGUGUUGAAUGAUUGGUGAGUUUGUUUGCUCAUUGAUUGAAUCACUGC [hsa-mir-3678]	0.133	-0.734	0.121	-0.79	-0.307
AGAACAUUCGUUCACUUUCCU [hsa-mir-6747]	-1.1	-0.352	-0.29	-0.404	-0.376
AACAGCUUUGCGAAGUGUUGUU [hsa-mir-4425]	-0.651	0.104	-0.137	-0.113	-0.553
